Measurements: publication PMC4352895, “Jarid2 Methylation via the PRC2 Complex Regulates H3K27me3 Deposition during Cell Differentiation” (Molecular Cell, 2015)

Assays:
PRC2 = PRC2 HKMT activity with Jarid2 fragments (aa 109–450), recombinant or native chromatin; assay type: biochemical; details: native chromatin; equimolar amounts of Jarid2 fragments aa 109–450; n = 3
Description: Figure 5 Jarid2 Methylation Regulates PRC2 Enzymatic Activity Depending on Chromatin Environment (A) HKMT assay performed with PRC2-Ezh2 on recombinant oligonucleosomes in the presence of peptides mimicking either Jarid2-K116me2 and me3 or H3K27me3. (B) HKMT assay as in (A) performed with PRC2-Ezh2 reconstituted with either Eed WT or F97A. (C) Table indicating the sequences of the peptides and the relative dissociation constant Kd (μM) for ΔEed binding measured by ITC. (D) Ribbons representation of ΔEed-Jarid2-K116me3 and ΔEed-H3K27me3 complexes. Eed is in gray; Jarid2 peptide is in yellow while H3 peptide is in purple, both in stick representation. Eed aromatic amino acids are in stick and cyan color. Top: top views. Bottom: zoom-in of side views. (E) HKMT assay as in (A) in presence of peptides Jarid2-K116me3 WT or F117A. (F) Left: representation of the chimeric proteins used in the HKMT assay. The red cross indicates the point mutations introduced in the protein to perform native chemical ligation. […] Right: quantification of PRC2-HKMT activity in the presence of the three Jarid2 fragments (mean ± SD, n = 3). […]
The N-terminal region of Jarid2 comprises distinct domains for both PRC2 and chromatin interactions ([Son et al., 2013]). […] We then monitored PRC2 enzymatic activity on recombinant or native nucleosomes either alone or in the presence of equimolar amounts of Jarid2 fragments (Figure 5F). […]

PRC2-Ezh2 = assay: HKMT assay, PRC2-Ezh2 with Jarid2 fragments, titration of H3K27me3 octamers in recombinant chromatin; assay type: biochemical; details: recombinant chromatin with increasing amount of H3K27me3 octamers
Description: Figure 5 Jarid2 Methylation Regulates PRC2 Enzymatic Activity Depending on Chromatin Environment (A) HKMT assay performed with PRC2-Ezh2 on recombinant oligonucleosomes in the presence of peptides mimicking either Jarid2-K116me2 and me3 or H3K27me3. (B) HKMT assay as in (A) performed with PRC2-Ezh2 reconstituted with either Eed WT or F97A. (C) Table indicating the sequences of the peptides and the relative dissociation constant Kd (μM) for ΔEed binding measured by ITC. (D) Ribbons representation of ΔEed-Jarid2-K116me3 and ΔEed-H3K27me3 complexes. Eed is in gray; Jarid2 peptide is in yellow while H3 peptide is in purple, both in stick representation. Eed aromatic amino acids are in stick and cyan color. Top: top views. Bottom: zoom-in of side views. (E) HKMT assay as in (A) in presence of peptides Jarid2-K116me3 WT or F117A. (F) Left: representation of the chimeric proteins used in the HKMT assay. The red cross indicates the point mutations introduced in the protein to perform native chemical ligation. Red circle indicates K116me3. Right: quantification of PRC2-HKMT activity in the presence of the three Jarid2 fragments (mean ± SD, n = 3). […]
To evaluate a potential competition between H3K27me3 and Jarid2-K116me3, we reconstituted chromatin in presence of increasing ratios of octamers fully methylated on K27 and monitored PRC2 activity in presence of Jarid2 fragments (Figure 5G). […]

B1: fully methylated Jarid2 fragment: peptide containing aa 109–123 (K116me3) coupled through native chemical ligation with the aa 124–450 fragment (protein, UniProt Q92833 109-450, looked up, fragment)
chain: PRLQAQRKFAQSQPNSPSTTPVKIVEPLLPPPATQISDLSKRKPKTEDFLTFLCLRGSPALPNSMVYFGSSQDEEEVEEEDDETEDVKTATNNASSSCQSTPRKGKTHKHVHNGHVFNGSSRSTREKEPVQKHKSKEATPAKEKHSDHRADSRREQASANHPAAAPSTGSSAKGLAATHHHPPLHRSAQDLRKQVSKVNGVTRMSSLGAGVTSAKKMREVRPSPSKTVKYTATVTKGAVTYTKAKRELVKDTKPNHHKPSSAVNHTISGKTESSNAKTRKQVLSLGGASKSTGPAVNGLKVSGRLNPKSCTKEVGGRQLREGLQLREGLRNSKRRLEEAHQA
modifications: K116 trimethyl
notes: peptide containing aa 109–123 (K116me3) coupled through native chemical ligation with the aa 124–450 fragment
- stimulation of PRC2 enzymatic activity relative to K116A or K116R fragments, result in words (PRC2): this stimulation was lost
- effect of H3K27me3 titration on Jarid2-mediated stimulation of PRC2, result in words (PRC2-Ezh2): no effect on the stimulation of PRC2 mediated by Jarid2
